Source: article PMC10853802, “ESRP1 controls biogenesis and function of a large abundant multiexon circRNA”

T1: ESRP1 qRRM2 WT (human, UniProt Q6NXG1 312-430)
T1 sequence: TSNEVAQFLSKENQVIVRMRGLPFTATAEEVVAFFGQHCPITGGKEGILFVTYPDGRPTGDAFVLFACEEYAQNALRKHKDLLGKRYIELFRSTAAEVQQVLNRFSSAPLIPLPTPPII

T2: ESRP1 qRRM2 Y398A (human, UniProt Q6NXG1 312-430, Y398A)
T2 sequence: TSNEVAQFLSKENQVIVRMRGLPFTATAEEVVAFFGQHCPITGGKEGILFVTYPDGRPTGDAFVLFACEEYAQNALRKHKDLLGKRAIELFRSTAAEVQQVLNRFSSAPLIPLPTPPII

T3: ESRP1 qRRM2 F335A (human, UniProt Q6NXG1 312-430, F335A)
T3 sequence: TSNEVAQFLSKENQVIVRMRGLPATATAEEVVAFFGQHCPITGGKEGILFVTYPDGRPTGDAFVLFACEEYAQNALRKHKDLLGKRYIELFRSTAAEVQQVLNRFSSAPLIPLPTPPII

T4: ESRP1 qRRM2 R397A (human, UniProt Q6NXG1 312-430, R397A)
T4 sequence: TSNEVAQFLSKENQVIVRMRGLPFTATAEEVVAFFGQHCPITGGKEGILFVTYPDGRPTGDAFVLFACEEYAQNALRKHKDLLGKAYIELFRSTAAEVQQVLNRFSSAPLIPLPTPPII


Columns and labels:
Conditions in all cases: protein: recombinant; tags: His-SUMO removed by Ulp1
[1] = target: T1, ESRP1 qRRM2 WT; assay: X-ray crystallography (1.65 A); ITC: 100 mM NaCl, 10 mM Tris-HCl pH 8.0, 25 C; 300 uM protein injected into 20 uM RNA
[2] = target: T2, ESRP1 qRRM2 Y398A; assay: ITC; ITC: 100 mM NaCl, 10 mM Tris-HCl pH 8.0, 25 C; 300 uM protein injected into 20 uM RNA
[3] = target: T3, ESRP1 qRRM2 F335A; assay: as above
[4] = target: T4, ESRP1 qRRM2 R397A; assay: as above

Binder	binding result [1]	binding result [2]	binding result [3]	binding result [4]
UGGUGGUGGUGG (ssRNA) [12-mer RNA]	binds	–	–	–
UGGUGG (ssRNA) [6-mer RNA]	–	no binding	no binding	no binding
